Measurements as given in a protein production outcome set (Wang et al. 2014).

assay: label from the status in PepcDB records

| Sequence | protein production |
| --- | --- |
| MREALRSLLVALQFLTRLPVRLSAMPTPEQFGRAVLCYPLVGVLIGVVLYAAARSLDGTPPLLQAALLLSLWVALSGALHLDGLADMADAWVGGLGDRERTLAIMKDPRSGPVAVVVLVLVLLLKFSALAALLGQGEAGLLPLAPWLARSSLPLLFLTTPYARPGGLGQAIAEHLPARSLPWVLGVSFGLALAFGLAGLLALLVTLMLFAWLRSRFLARLGGTTGDTAGALVELTECAVLVALAL | failed |
| MREDNPNWFLRWEEELPSPEELIPISQTLITPHLALAFQIGSPNHHLGSKRTTAIYHQKLQSSTTPTTPTPTPPPMMMNSDFGGGDSTDLGSGSIGGEPARTLKRPRLVWTPQLHKRFVDAVGHLGIKNAVPKTIMQLMSVEGLTRENVASHLQKYRLYLRRMQGGNGNGITGGHVIVSDSATDRLFASSPVPAHFLSPDYLMPPLEHSYMGKHVITQQNQVVRNLRYEDSEYGHGSMKMLKLFPAGN | not failed |
| MREETKCALIIDESLPLGLIANTAAILGAALGKNKPDLIGETVTDGSGIDHLGIVKIPIPILKGNAELLHQLSQKLLTDEFNDILTVDFTDVAQSIHTYEAYIEAFQSTAASDYRYFGIGICGDKKKVARLTGSLGLLRLEHHHHHH | not failed |
| MREHHHNLRHYTLYAATIITITTLVRFWFVASGQLDLVQDEAQYWDWTRRLQLSYYSKGPLIAWLIGMWTGVFGDTELGVRFGALAGSALAQVMLFLGVGRLFGRPRLALLTLGVANTTPLFMVAGVLMTTDGPLLLCWLGALLCIHAATRTPRATAPYLLLAMCMAVGVLAKYMMLAVAAIACLHMWLLHRQRLLPQGVALRVVCACLAGAACGMLPILLWNAQNDWVGFKHVGTLAGVTGKASKAFLRLDRLPEHLGAQLGVATPWWLLLMLGMAWRSLRIAWTGVVPPGEPAEAAGREEAVRQSSLLFCAFMPLWGVITLWSLHTRIYPNWPAMSYVGGIILAAAGVERLLDGLGAPRWRRLVPLWFTLGACLFAAAHFQNTLPLPASLNPAARLKGWEDLGRELDRVRHGLPHPDRVFFFSDAYDITAELAFYVPGKPFTFCADFGRRMSQYDLWPSPADKVGWDAVFVRRDGTSVPRELLEMFDSAELYRYQSTHHGAPGRVFTVIVLRGFNGEWPRRSFRSF | failed |
| MRETGSRPSRSGERRLSWLWLAMAASLVFAVFAVRPPSRIDNVLYDVLTRANAHPADDSILIVDIDDRSLARMGAWPWGRDTHARMVDQLTQAGAKTIVYDVLFSQPSRDPAQDRALGEAIARSGRVYLPEFLIDGGEQAPPRVVGSISEIARGAAGVGLAHVRFDDDGVVRRMAPFEANGPSLKPDLMTVVHRATRPPGSPDVTRGNEQTLLISFAGPPSIYRHASFASVLDGEVPRELIAGRTVFVGLTAPGLGPAFPTPVTPDAASMTGVQLQASVLDALRSGRMITPAGPWSRVGFSLTLLWLLMIGFMALPPRANLLLTIGLCLVGLAYSAALFWLGHIWLSPITTVIGLQLVALIWGWGRLGQVNDLIGRELARVRAVVRGRGAKPAAFSGDVVTRQASSLGDAITRMDDLRRFSADALFSLPDATLVANEQGRVIAANAAAQALFKPHQATLNGASLADLINLLDPLGRRFELDWPQATDRHDPIDLHLPDGRAFQLQTVLRRDEHGGPAGWIVRLADISILTAAMRQREQALQLLTHDMRSPQTSILALLATTPDLPKETADRIAAYARRTLALADGFVQLARAEVTPVSLEPLDLADVAVEAIDEVWPQSLQRKIRIEQVGGEAPLMVLGDRSVLARTFVNLLGNALKYSPSGSTITVNLAEQPSPSGPVACIAIADQGPGFSREEAATAFRPFQRFERPGHELASNGVGLGLAFVQAAVARHGGEVSCRSEPGVGAEFTVRLPRHGVVQGG | failed |
| MRETIREIQKVAYWLAIKGLSEANAGNISVRLDERPEGYEVKSVNEYGFDYDGPEMYLLITATGSRMREVYEDDSKICLLHVLPGKHYEILHGNGKPTSEFPTHLMIHAKFKEMNPEKKAIVHTHPLNLLTLMNLEEFQELLPKMMKIHPEVLIFFPQGISVVEFEKPGSVELGLKTVEKSEGKDAVLWDKHGVVAFGKDVAEAYDRVEILEKAAEILLRVLSLGRNPTGVPEGWL | not failed |
| MRETSNPVFRSLPKQRGGYAQFGTGTAQQGFPADPYLAPYREAKATRPLTIDDVVTKTGLTLAMLAGTAVVSYFLVASNVALAMPLTLVGALGGLALVLVATFGRKQDNPAIVLSYAALEGLFLGAISFVLANFTVASANAGVLIGEAILGTMGVFFGMLVVYKTGAIRVTPKFTRMVVAALFGVLVLMLGNLVLAMFNVGGGEGLGLRSPGPLGIIFSLVCIGIAAFSFLIDFDAADQMIRAGAPEKAAWGVALGLTVTLVWLYIEILRLLSYLQNE | failed |
| MRFLFLLFIVFPAIEIGIFLFLGNLIGILPTVLFMILTGIIGAAAAKKQGTEVYYKVQRDLQYGKMPGEAIADGLCIFIGGLLLMLPGFLSDLAGACLLIPFTRGWCKPILFKWLRGMSKNKRIIIK | failed |
| MRFMFLHPRLSLEGDPLGLMQLSASLKQRGHIVGLTLLTEDYIEAIRSFQPDMLGVSLMSSDAVMMHQVLNKVRMVFPDLFIIVGGPHPTFDPSCLMVLPVNAICVGEGDEALVEALEQYGREGHVEGIRNVGTVTTPVTLRPLVSDLDDLPFIDRDIVYAKNHIVRDFPLKTFAASRGCHFKCTYCFNHAYNAMYAGLGHVVRRRSVDHLIAEMRDVIARYPTSYIKISDDSFTYRVDSWLEEFAEKYPRLIGLPFYCLLRADVVTRDMVRLLREAGCRSVCMSIEAGAETVRRDVLNRRVSNEKIIESFDLFNEAGIAIYTNSMLAMPRATLADDIATLDLNIRCRPTLGHFTIMAPFPGTRIHDMCEKDGILPERCGGDGDIPTSTGELSKLTTYTDEEKNIQKNIVLLGPLVIRFPVLRGVFLRCLAKLPSNNILFKCIYTVTKNLLFKRIVPVRMSPLLMLRIAIAQVKAARTQVG | failed |
| MRFNYPPDGVSQLIASRWKIGVALALAVLLFFAFLVLLPLADGIVLGIVFAYIARPIQVKFGKYRKIGALIASLFIFIPIVFIVGAGVVEILNQISWIFENQTSVMSGILDFIHGLEIPSTYVERINNAIWNLFTSLLPAVGSVGLISYAQSIGLFVINFIVSIFFCYFLLADGDRLYCAFIGMIPSDYQNIVNRYASHLDLILKGVFIGNAYSALIVSVTSVFVFRAFGFSHVLALATLVFIASVIPLFAGYMVLVPMALFRYFEQGFQSAALFFVVSSLVIYGPPELILRPFLTSLKSKIHPMLLMLAFLGGAFVGGIAGFFAAPILLGALVAAYRVYQEQIHPELVAQADVYLKDPAKACRTDEKNSFQ | failed |
| MRFPELEELKNRRTLKWTRFPEDVLPLWVAESDFGTCPQLKEAMADAVEREVFGYPPDATGLNDALTGFYERRYGFGPNPESVFAIPDVVRGLKLAIEHFTKPGSAIIVPLPAYPPFIELPKVTGRQAIYIDAHEYDLKEIEKAFADGAGSLLFCNPHNPLGTVFSEEYIRELTDIAAKYDARIIVDEIHAPLVYEGTHVVAAGVSENAANTCITITATSKAWNTAGLKCAQIFFSNEADVKAWKNLSDITRDGVSILGLIAAETVYNEGEEFLDESIQILKDNRDFAAAELEKLGVKVYAPDSTYLMWLDFAGTKIEEAPSKILREEGKVMLNDGAAFGGFTTCARLNFACSRETLEEGLRRIASVL | failed |
| MRFPSLLALGLTLPLGAFAAGGDSTGGSTWTNPPKETQTTKECKGVKVWDDKKKRCVAPKNSGLDADTLYDAVRELAYAGRPADAQGVLAAMPDQSDDRVLTYWGFTHRKLGDLDRAAFYYQAAIAANPDNILARSYMGQGFVEAGKTDLAIAQWREITARGGEGSWAEVSLREAIRSGLTYSY | failed |
| MRFSLFVHMERVSDQQTQKQLYDEMIELCQIADRGGMHAIWTGEHHAMNFTIAPNPFLNIADLANKTKHVRLGTGTVVAPFWHPIKLAGEAAMTDIISNGRLDIGIARGAYSFEYERMVPGMDAWSAGQRLREMIPAIKNLWKGDYEHNGEFWQFPKTTSAPQPLQQPNPPIWVAARDPNSHEFAVQNGCNVQVTPLHLGDEEVEKLMGHFNSACEKFQDIERPEIMLLRHTYVADSEEDAQVAANEMNVFYNYFGAWFKNEREINQGLIAPLSDEEIAAHPFYTPEAMRKNNVIGQAQEVIDRLKAYEAMGYDEYSFWIDTGMSFERKKASLERMINEVMPAFSESKVDRRHATISAVY | failed |
| MRFVNPIPFVRDINRSKSFYRDRLGLKILEDFGSFVLFETGFAIHEGRSLEETIWRTSSDAQEAYGRRNMLLYFEHADVDAAFQDIAPHVELIHPLERQAWGQRVFRFYDPDGHAIEVGESLSQSGE | not failed |
| MRGARKSMGRVSYLRLPHLSGDQLCFVAEDDLWLASLDGPGRAWRLTVDRTKAGPPRFSPDGRHIAYTSWRTLVPEVHLVPVDGGPGRQLTHWGGLDTRVCGWSPPDPDGTTAVLAVASHGEPFSHLTWAYKVTPDGDPGRKLPWGPVTDIQAADLDGERRTLLLTGTPPHEPAAWKRYRGGATGRLWLHGERLLPDLGGHLSAPMFVGGRIAFLSDHEGVGNLYSCAQDGTGLRRHTDHDAFYARNAASDGTRVVYQCAGDLWIVDDLAPGSAPRRLDVRLSGPRAGRRTHQVPAAQHVGGISVDETGRASAVVVRGSLYWLTHRDGPARTIADTPGVRVRLPEMLGESGRIAYVTDAEGEDAVEISYLPRATGGRAARRLASGRLGRVLELVSDPAGDRLAVASHDGRLLILDVAEPDTEVTLALEAVDAGYPPDAGDEDAAGTAARADSAPDAPAEDTDARDIAAGTGTGDIADADAAAGGTVTPGSPGTPATAGGQVTELIRSVNGPVRDLAFSPDGTWLTWSHPGIGRTLRQIKMARIDGPEGTLVVDVTNGRFEDENPVFTRDGRYLAFLSWRGFDPVYDVHTGDLSFPLGCRPYLVPLSSATPSPFALNPEGRPAAGGLDPLEDEPGEGGAVMVEVEGLESRVTPFPVTASKYSALEPVAGGGLVWLRWPISGALGETFANPADPSERPTLEHFNLAKAKKSELVDHLDWFRVSGDGSRLVVLDEGELRAVPASEVGDGDSTTWIDLRRILHEVDPAAEWRQAYDEAGRLIRAYFWDPGMCGIDWDAVLDQYRPLLERVASPDEFADLLREVLGELGTSHAYVVAARRNEGPAHYQRWQGLLGANLACRDGRWLVRRILPGDSSDSKARSPLAGTGIRDGAVLTHVDGRPVDPVLGPSPLLAGAGGTTVELTFAPAEGCQGPSRRVAVVPLVDERPLRYQDWVAKRREVVRELSGGRCGYLHIPDMGGSGWAQFNRDLRMEVSRPALIVDVRGNAGGHISELVIEKLTRTILGWDLTRDAQPVSYTSNAPRGPVVAVADEATSSDGDMITAAFKLLRLGPVVGQRTWGGVVGMTGRHRLGDGSVITVPMNAAWFDAYGWSVENYGVAPDVEALRTPLDWAEGRYPVLDEAVRLALELLETNPPATPPGYEAVPDRSRPPLPPRE | failed |
| MRGKILIFLHAHLPYVHHPEYDHFLEERWLFEAITETYIPLLMMFDEIEDFRLTMSITPPLMEMLSSRDLQEKYERHMEKLIELANKEVERTKKEHPLKHKMAKFYREHFEKILNVFRSYDGNILEGFKKYQETGKLEIVTCNATHAFLPLYQMYPEVVNAQITVGVKNYAKHMTLHPRGIWLAECGYYQGLDLYLAQNNVEYFFVDSHAFWFADEQPRYGVYRPIMTPSGVFAFARDPESSEQVWSAAVGYPGDPRYREFYRDIGFDREMEYIKDYIDPSGVRINTGIKYHRITSKSLDASQKEYYDIDLAMEAVEEHARDFLHKKESQARRLMDIMGVEPVIVAPFDAELFGHWWFEGVFFLKRFFELVNESKDLKLVTASEVIDTLEEVQIATPADSSWGAGGYYETWLNGTNDWIYRHLHEMIERMIDLSKKYYNSSDPLVERVLNQMLRELFLAQSSDWAFIMTTRTSVQYAENRTKLHIKRFLNLYDQLVSGRIDEEMLRYYEWTDAIFPEINFRVMARDVI | not failed |
| MRGLSLSPVVLPEVRREAGVELRKARLEDVDAIYWLIRYWAEKGLMLVRSHSHLYENIRDFWVLEDEDGQIVGTVALHVLWRDLAEIRGLAVHPTRQGQGLGRWLVLGAEREARDLGLPRVFAWTLQVNFFRALGYRVTSREALPPKVWSECNACPFYENCREIAVVKEFSPGASGG | failed |
